Values of other authors in paper PMC3308923.

Molecular target: HIV-1 capsid CA (Human immunodeficiency virus 1) (UniProt O93182)
Conditions: cited from earlier work

Chain of HIV-1 capsid CA (Human immunodeficiency virus 1) (O93182 133-363): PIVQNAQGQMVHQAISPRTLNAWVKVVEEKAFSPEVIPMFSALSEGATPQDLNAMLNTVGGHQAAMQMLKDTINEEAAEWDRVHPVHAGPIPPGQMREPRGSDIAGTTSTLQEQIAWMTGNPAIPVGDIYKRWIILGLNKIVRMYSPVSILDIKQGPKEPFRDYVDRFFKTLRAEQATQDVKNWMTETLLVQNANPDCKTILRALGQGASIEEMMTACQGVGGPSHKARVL

CAI peptide
Kd: 15 µM
